Source: patent publication US20130064836A1 (Novartis, published 2013)
Like-named read-outs stand apart in the source and are kept apart here.

B1: MOR08111 (antibody, human IgG1, lambda, L234A L235A, V domains shown)
VH: EVTLKESGPALVKPTQTLTLTCTFSGFSLSTSGGGVSWIRQPPGKALEWLANIDDADIKDYSPSLKSRLTISKDTSKNQVVLTMTNMDPVDTATYYCARGPYGFDSWGQGTLVTVSS
VL: ESALTQPASVSGSPGQSITISCTGTSSDIGTYNYVSWYQQHPGKAPKLMIYDDSNRPSGVSNRFSGSKSGNTASLTISGLQAEDEADYYCQSYDSQSIVFGGGTKLTVLG
notes: Germlined final IgG, human IgG1AA format
B2: MOR08114 (antibody, human IgG1, lambda, L234A L235A, V domains shown)
VH: EVQLVQSGAEVKKPGESLKISCKGSGYSFTSYYIGWVRQMPGKGLEWMGIIDPTDSQTAYSPSFQGQVTISADKSISTAYLQWSSLKASDTAMYYCARYMMRGFDHWGQGTLVTVSS
VL: SYELTQPPSVSVAPGQTARISCSGDSLGDYYAYWYQQKPGQAPVLVIYKDNNRPSGIPERFSGSNSGNTATLTISGTQAEDEADYYCQTWDTGESGVFGGGTKLTVLG
notes: Germlined final IgG, human IgG1AA format; also called Antibody 8114
B3: MOR07872 (Fab, V domains shown)
VH: QVQLVQSGAEVKKPGESLKISCKGSGYSFTSYYIGWVRQMPGKGLEWMGIIDPSDSHTTYSPSFQGQVTISADKSISTAYLQWSSLKASDTAMYYCARYMMRGFDHWGQGTLVTVSS
VL: DIELTQPPSVSVAPGQTARISCSGDSLGDYYAYWYQQKPGQAPVLVIYKDNNRPSGIPERFSGSNSGNTATLTISGTQAEDEADYYCQTWDILPHGLVFGGGTKLTVLG
notes: light CS or A
B4: MOR07873 (Fab, V domains shown)
VH: QVQLVQSGAEVKKPGESLKISCKGSGYSFTSYYIGWVRQMPGKGLEWMGIIDPSDSHTTYSPSFQGQVTISADKSISTAYLQWSSLKASDTAMYYCARYMMRGFDHWGQGTLVTVSS
VL: DIELTQPPSVSVAPGQTARISCSGDSLGDYYAYWYQQKPGQAPVLVIYKDNNRPSGIPERFSGSNSGNTATLTISGTQAEDEADYYCQAWTDSPTGLVFGGGTKLTVLG
notes: light CS or A
B5: MOR07086 hu IgG1 (antibody, V domains shown)
VH: QVQLVQSGAEVKKPGSSVKVSCKASGGTFSSYAISWVRQAPGQGLEWMGGIGPFFGTANYAQKFQGRVTITADESTSTAYMELSSLRSEDTAVYYCARDTPYFDYWGQGTLVTVSS
VL: DIELTQPPSVSVAPGQTARISCSGDSIPNYYVYWYQQKPGQAPVLVIYDDSNRPSGIPERFSGSNSGNTATLTISGTQAEDEADYYCQSFDSSLNAEVFGGGTKLTVL

Legend:
[1] = biological target: T1, human complement C5 protein (human, UniProt P01031 19-673; P01031 678-1676, Beta and alpha chains are joined by disulfide bonds. C5 was biotinylated in some assays.)
[2] = biological target: T1, human complement C5 protein; remark: listed apart in the source
[3] = biological target: cynomolgus C5 (Macaca fascicularis) (cynomolgus (Macaca fascicularis))
[4] = biological target: T1, human complement C5 protein; remark: listed apart in the source
[5] = biological target: T1, human complement C5 protein; remark: listed apart in the source
[6] = biological target: T1, human complement C5 protein; test: SET (MSD), IgG, 1st measurement
Procedure: (§1) In order to improve the sensitivity and accuracy of the SET method, it was transferred from classical ELISA to ECL based technology (Haenel et al., Anal Biochem 339:182-184 (2005)).
(§2) 1 mg/ml goat-anti-human (Fab)₂ fragment specific antibodies (Dianova) were labelled with ECL Sulfo-TAG™ NHS-Ester (Meso Scale Discovery, Gaithersburg, Md., USA) according to the manufacturer's instructions. The experiments were carried out in polypropylene microliter plates and PBS pH 7.4 with 0.5% BSA and 0.02% Tween 20 as assay buffer. […] Wells without antigen were used to determine Bmax values; wells containing neither antigen nor IgG were used to determine background. After addition of e.g. 10 pM IgG (final concentration in 60 μl final volume), the mixture was incubated over night at RT. The applied IgG concentration was similar to or below the expected KD.
(§3) Streptavidin MSD plates were coated with 0.2 μg/ml biotinylated human C5 (30 μl/well) and blocked with 5% BSA in PBS. Subsequently the equilibrated samples were transferred to those plates (30 μl per well) and incubated for 20 min. After washing, 30 μl/well of the ECL Sulfo-tag labeled detection antibody (goat anti-human (Fab)₂) in a final dilution of 1:1500 was added to the MSD plate and incubated for 30 min on an Eppendorf shaker (700 rpm).

[7] = biological target: T1, human complement C5 protein; test: SET (MSD), IgG, 2nd measurement
Procedure: as §1, §2, §3

[8] = biological target: T1, human complement C5 protein; test: SPR (Biacore), IgG captured via anti-human Fc, C5 injected
Procedure: (§4) A CM4 chip was coated with 50 μg/ml goat anti-human Fc antibody (500-2000 RU) in 10 mM acetate buffer, pH 4.5, using standard EDC-NHS amine coupling chemistry. Each anti-human C5 IgG was captured on the chip in HBS-EP buffer at constant flow rate of 10 μl/min for a contact time leading to a ligand density around 20 RU. […] Each cycle was completed with two regeneration steps with phosphoric acid. All running conditions were carried out at 25° C. in 1× HBS-EP buffer. The resulting signals were adjusted by double referencing, substracting the refraction index values from the reference flow cell and the binding step with no analyte. Data were collected at 10 Hz and analyzed using the Biacore T100 Evaluation Software Version 1.1 (GE). This program uses a global fitting analysis method for the determination of rate and affinity constants for each interaction. […]

[9] = biological target: T1, human complement C5 protein; test: cell-based or functional assay
[10] = biological target: T2, cynomolgus C5 (Macaca fascicularis) (cynomolgus (Macaca fascicularis), Beta and alpha chains are joined by disulfide bonds; the protein is a serum glycoprotein.); test: cell-based or functional assay
T2 beta: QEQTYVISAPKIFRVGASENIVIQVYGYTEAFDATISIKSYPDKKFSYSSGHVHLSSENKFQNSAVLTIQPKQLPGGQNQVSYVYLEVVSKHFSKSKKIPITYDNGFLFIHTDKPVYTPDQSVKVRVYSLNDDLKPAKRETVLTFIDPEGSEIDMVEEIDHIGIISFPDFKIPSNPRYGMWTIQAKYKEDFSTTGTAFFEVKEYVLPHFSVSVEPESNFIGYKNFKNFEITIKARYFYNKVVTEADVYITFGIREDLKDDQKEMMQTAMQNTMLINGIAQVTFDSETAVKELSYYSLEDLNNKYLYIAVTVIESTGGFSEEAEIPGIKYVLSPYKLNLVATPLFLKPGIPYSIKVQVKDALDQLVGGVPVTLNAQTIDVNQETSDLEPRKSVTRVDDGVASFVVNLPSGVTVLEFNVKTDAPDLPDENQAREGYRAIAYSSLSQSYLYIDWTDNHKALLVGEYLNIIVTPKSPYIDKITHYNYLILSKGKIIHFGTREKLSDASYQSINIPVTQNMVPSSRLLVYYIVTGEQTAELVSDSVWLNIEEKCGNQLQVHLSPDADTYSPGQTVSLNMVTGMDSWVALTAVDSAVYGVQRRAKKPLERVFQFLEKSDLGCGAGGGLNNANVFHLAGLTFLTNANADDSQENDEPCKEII
T2 alpha: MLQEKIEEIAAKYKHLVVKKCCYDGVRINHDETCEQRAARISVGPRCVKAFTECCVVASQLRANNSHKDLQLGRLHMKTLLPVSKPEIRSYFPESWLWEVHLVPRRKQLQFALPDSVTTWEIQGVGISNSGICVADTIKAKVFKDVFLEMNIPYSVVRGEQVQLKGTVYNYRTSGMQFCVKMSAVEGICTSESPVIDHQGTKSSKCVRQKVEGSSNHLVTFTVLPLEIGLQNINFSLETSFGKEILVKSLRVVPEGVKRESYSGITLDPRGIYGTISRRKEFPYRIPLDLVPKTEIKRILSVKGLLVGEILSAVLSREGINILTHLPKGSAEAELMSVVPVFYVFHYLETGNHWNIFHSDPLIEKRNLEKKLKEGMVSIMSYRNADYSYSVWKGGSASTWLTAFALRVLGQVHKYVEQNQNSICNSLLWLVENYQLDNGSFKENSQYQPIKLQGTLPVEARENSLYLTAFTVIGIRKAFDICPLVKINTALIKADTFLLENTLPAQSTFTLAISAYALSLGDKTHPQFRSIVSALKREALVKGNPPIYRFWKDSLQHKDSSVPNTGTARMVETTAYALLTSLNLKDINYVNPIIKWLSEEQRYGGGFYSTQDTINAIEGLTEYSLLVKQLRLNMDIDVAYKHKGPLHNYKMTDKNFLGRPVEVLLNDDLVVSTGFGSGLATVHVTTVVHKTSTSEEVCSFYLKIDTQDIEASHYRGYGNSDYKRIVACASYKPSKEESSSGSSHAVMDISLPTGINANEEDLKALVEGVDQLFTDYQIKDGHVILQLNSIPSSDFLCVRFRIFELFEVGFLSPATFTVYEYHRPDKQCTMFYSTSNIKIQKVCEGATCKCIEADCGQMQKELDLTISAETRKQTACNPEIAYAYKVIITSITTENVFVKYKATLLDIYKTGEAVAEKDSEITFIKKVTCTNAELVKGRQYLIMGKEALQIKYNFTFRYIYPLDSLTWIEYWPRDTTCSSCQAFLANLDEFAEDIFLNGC

[11] = biological target: T1, human complement C5 protein; test: cell-based or functional assay; remark: listed apart in the source
[12] = biological target: T2, cynomolgus C5 (Macaca fascicularis); test: SET (MSD), IgG, 1st measurement
Procedure: as §1, §2, §3

[13] = biological target: T2, cynomolgus C5 (Macaca fascicularis); test: SET (MSD), IgG, 2nd measurement
Procedure: as §1, §2, §3

[14] = biological target: T2, cynomolgus C5 (Macaca fascicularis); test: SPR (Biacore), IgG captured via anti-human Fc, C5 injected
Procedure: as §4

[15] = biological target: T1, human complement C5 protein; test: cell-based or functional assay; remark: listed apart in the source
[16] = biological target: T3, human complement C3 (human, UniProt P01024 23-667; P01024 672-1663); test: solution ELISA: Fab with biotinylated antigen on NeutrAvidin plate, His-tag detection [huC3 panel]
T3 construct: Counter target in the ELISAs, coated directly or biotinylated; also called human C3
Procedure: Fabs were incubated with biotinylated antigen on a Neutravidin plate and detected via the histidin tag.

[17] = biological target: T2, cynomolgus C5 (Macaca fascicularis); test: affinity chromatography

T3 sequence (P01024 23-667 limits assumed, chain 1 of 2): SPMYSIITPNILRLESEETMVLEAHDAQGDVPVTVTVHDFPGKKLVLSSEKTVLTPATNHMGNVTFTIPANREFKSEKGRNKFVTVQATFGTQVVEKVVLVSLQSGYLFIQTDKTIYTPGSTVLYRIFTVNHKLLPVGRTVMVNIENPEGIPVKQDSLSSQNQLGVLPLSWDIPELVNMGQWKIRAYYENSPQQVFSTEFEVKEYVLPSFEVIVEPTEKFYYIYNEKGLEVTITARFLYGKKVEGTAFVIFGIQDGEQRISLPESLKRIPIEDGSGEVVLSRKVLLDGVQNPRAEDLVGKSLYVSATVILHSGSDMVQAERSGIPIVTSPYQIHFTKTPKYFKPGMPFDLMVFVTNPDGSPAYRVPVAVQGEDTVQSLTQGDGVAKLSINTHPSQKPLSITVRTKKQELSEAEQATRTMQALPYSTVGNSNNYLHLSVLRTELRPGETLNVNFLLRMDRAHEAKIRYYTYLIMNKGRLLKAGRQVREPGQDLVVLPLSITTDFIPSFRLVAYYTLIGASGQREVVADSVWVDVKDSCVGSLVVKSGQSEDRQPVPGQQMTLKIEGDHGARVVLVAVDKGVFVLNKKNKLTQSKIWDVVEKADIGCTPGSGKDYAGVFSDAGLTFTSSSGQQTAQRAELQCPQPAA
T3 sequence (P01024 672-1663 limits assumed, chain 2 of 2): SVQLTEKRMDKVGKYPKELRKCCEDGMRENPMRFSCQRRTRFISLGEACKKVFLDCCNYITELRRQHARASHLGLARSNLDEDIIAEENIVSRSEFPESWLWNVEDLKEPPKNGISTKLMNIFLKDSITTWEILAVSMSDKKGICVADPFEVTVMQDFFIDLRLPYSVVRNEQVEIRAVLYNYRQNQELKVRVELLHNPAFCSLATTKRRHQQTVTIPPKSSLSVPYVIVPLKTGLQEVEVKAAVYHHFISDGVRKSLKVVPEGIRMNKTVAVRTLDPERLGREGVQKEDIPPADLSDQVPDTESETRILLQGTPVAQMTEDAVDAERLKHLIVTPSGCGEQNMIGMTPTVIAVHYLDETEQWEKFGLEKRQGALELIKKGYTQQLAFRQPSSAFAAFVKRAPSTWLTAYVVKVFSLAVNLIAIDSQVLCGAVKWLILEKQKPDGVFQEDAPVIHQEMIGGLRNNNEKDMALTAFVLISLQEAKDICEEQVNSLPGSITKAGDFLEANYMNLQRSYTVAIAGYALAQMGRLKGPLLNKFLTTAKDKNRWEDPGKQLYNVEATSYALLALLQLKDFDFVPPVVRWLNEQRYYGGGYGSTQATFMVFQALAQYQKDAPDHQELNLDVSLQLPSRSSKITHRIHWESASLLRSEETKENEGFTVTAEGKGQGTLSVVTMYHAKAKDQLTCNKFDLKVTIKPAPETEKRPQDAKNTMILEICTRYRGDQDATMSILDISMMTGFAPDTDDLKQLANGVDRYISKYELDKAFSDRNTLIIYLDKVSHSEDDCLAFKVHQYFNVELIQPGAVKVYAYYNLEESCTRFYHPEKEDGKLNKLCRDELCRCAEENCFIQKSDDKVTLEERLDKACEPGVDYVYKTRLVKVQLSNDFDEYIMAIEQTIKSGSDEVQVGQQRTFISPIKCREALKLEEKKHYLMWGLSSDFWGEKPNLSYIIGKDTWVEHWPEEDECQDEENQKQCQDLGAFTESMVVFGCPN

Molecule	Kd [6]	Kd [7]	Kd [8]	IC50; hemolysis CP, 20% human serum [9]	IC50 (read off the curve); hemolysis CP, 5% cyno serum [10]	Kd [12]	Kd [13]	koff [8]	kon [8]	Kd [14]	koff [14]	kon [14]	binding result [16]	also measured
5G1.1 (antibody)	0.024 nM	0.019 nM	0.056 nM											IC50; hemolysis AP, 100 pM human C5 [panel a] [1]: 0.14 nM; IC50; hemolysis AP, 100 pM human C5 [panel c] [1]: 0.205 nM; IC50; hemolysis AP, 100 pM human C5 [panel i] [2]: 58.2 pM; IC50; hemolysis AP, 100 pM cyno C5 in 20% human C5-depleted serum [panel a] [3]: 1.71 nM; IC50 (read off the curve); hemolysis AP, 100 pM human C5 [panel b] [4]: 90 pM; IC50 (read off the curve); C5a ELISA on AP hemolysis supernatants, 20% human serum [panel d] [5]: 20 nM; IC50 (read off the curve); hemolysis AP, 20% human serum [panel c] [5]: 50 nM
B1	0.005 nM	0.003 nM	0.031 nM	21.5 nM	~20 nM	0.014 nM	0.017 nM	3.07e-05 s⁻¹	1e+06 M⁻¹ s⁻¹	0.144 nM	0.000128 s⁻¹	891000 M⁻¹ s⁻¹		IC50 (read off the curve); hemolysis AP, 100 pM human C5 [panel a] [11]: ~0.1 nM
B2	0.001 nM	0.002 nM	0.015 nM	34.1 nM	~30 nM	0.005 nM	0.004 nM	3.12e-05 s⁻¹	2.09e+06 M⁻¹ s⁻¹	0.031 nM	3.13e-05 s⁻¹	1.06e+06 M⁻¹ s⁻¹		IC50 (read off the curve); hemolysis AP, 100 pM human C5 [panel c] [11]: ~20 pM; IC50 (read off the curve); hemolysis AP, 20% human serum [panel c] [15]: ~50 nM
B3													no binding (tested: 100 nM)	
B4													no binding (tested: 100 nM)	
B5														binding result [17]: binds
